Here are results for two molecules from PMC3285215, “The TAL Effector PthA4 Interacts with Nuclear Factors Involved in RNA-Dependent Processes Including a HMG Protein That Selectively Binds Poly(U) RNA”.

For series [1], the target named is T1, CsHMGΔNΔC (Citrus sinensis, UniProt G9I829 56-125). In words: competition; 1-30x vs poly(U) probe. The note with it: protein: recombinant; label: 5' 32P (direct EMSA).
In series [2] the target is T2, CsHMG (Citrus sinensis, UniProt G9I829 1-165). In words: EMSA; 0.5 and 1.0 ug protein. The note with it: protein: recombinant; tags: 6xHis; label: 5' 32P (direct EMSA).
In series [3] the target is T1, CsHMGΔNΔC. The experiment in a line: EMSA. The note with it: protein: recombinant; label: 5' 32P.
For the next series, the target named is CsHMGΔN (Citrus sinensis, UniProt G9I829 56-165). The experiment in a line: EMSA. The note with it: protein: recombinant; label: 5' 32P.
Sequence of CsHMGΔN (G9I829 entry or part of it mutant): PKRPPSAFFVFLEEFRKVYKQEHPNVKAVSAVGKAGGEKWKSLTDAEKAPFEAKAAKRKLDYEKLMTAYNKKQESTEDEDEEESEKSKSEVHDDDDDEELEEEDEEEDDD
In another series the target is CsHMGΔC (Citrus sinensis, UniProt G9I829 1-125). In words: EMSA. The note with it: protein: recombinant; label: 5' 32P.
Sequence of CsHMGΔC (G9I829 entry or part of it mutant): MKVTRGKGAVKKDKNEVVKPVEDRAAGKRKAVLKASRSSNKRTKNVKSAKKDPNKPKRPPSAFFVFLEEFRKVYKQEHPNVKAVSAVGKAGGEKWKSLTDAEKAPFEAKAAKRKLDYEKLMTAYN
For the next series, the target named is PthA4;CsHMG (Xanthomonas citri;Citrus sinensis, UniProt A0AAI8ETU3;G9I829 1-1163;1-165, |). The experiment in a line: EMSA; ternary complex suggested by higher MW bands; […], pH 7.5 ([…], pH 7.5, 20 min. The note with it: protein: recombinant;recombinant; tags: 6xHis;6xHis; label: 5' 32P.
The target of another series is PthA4 RD (Xanthomonas citri, UniProt A0AAI8ETU3 289-885). In words: EMSA; 5 mM Mg2+; […], pH 7.5 ([…], pH 7.5, 20 min. The note with it: protein: recombinant; label: 5' 32P.
Another series addresses PthA4 (Xanthomonas citri, UniProt A0AAI8ETU3 1-1163). In words: EMSA; 5 mM Mg2+; […], pH 7.5 ([…], pH 7.5, 20 min. The note with it: protein: recombinant; tags: 6xHis; label: 5' 32P.
The target in series [4] is T2, CsHMG. In words: competition; 1-30x cold poly(U). The note with it: protein: recombinant; tags: 6xHis; label: 5' 32P.

T1 sequence (G9I829 entry or part of it mutant): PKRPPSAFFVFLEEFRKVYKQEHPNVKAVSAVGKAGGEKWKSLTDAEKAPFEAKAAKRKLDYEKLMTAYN

For UUAUUAUUUAUUUAUUUAUU (ssRNA) [AU-rich RNA], the binding result with CsHMGΔNΔC [1] and in the series with CsHMG [2] was “no binding” each time.
On to UUUUUUUUUUUUUUUUUUUU (ssRNA) [poly(U) U-20], for which the binding result with CsHMGΔNΔC [3], with CsHMGΔN, in the series with CsHMGΔC, with PthA4;CsHMG, with PthA4 RD and in the series with PthA4 was “binds” each time. Also, the binding result in the series with CsHMG [4] is listed as “binds”.
